Assays:
Test in all cases: holdup assay
Design in all cases: key: below the threshold = too weak to quantify, mostly under pKd 3.1 to 4
APBA2_1, Q99767 = target: T1, APBA2_1, Q99767
T1 sequence (Q99767 563-664, limits assumed, looked up): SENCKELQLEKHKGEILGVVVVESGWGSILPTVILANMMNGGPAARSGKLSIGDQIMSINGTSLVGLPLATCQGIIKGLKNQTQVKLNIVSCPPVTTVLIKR

ARHGEF11, O15085 = target: T2, ARHGEF11, O15085
T2 sequence (O15085 42-136, limits assumed, looked up): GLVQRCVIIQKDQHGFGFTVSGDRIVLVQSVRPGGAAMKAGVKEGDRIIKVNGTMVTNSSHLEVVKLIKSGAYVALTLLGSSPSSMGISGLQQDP

DLG1_1, Q12959 = target: DLG1_1, Q12959
DLG3_1, Q92796 = target: T3, DLG3_1, Q92796
T3 sequence (Q92796 125-227, limits assumed, looked up): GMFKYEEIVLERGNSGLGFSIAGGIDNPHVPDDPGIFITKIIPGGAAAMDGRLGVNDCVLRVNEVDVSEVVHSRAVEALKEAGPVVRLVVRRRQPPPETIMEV

DLG4_1, P78352 = target: DLG4_1, P78352
DVL3, Q92997 = target: T4, DVL3, Q92997
T4 sequence (Q92997 244-331, limits assumed, looked up): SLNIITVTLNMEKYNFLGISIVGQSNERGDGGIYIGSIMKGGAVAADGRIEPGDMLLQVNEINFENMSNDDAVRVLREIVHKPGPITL

FRMPD2_3, Q68DX3 = target: FRMPD2_3, Q68DX3
FRMPD4, Q14CM0 = target: FRMPD4, Q14CM0
GRIP1_3, Q9Y3R0 = target: T5, GRIP1_3, Q9Y3R0
T5 sequence (Q9Y3R0 247-346, limits assumed, looked up): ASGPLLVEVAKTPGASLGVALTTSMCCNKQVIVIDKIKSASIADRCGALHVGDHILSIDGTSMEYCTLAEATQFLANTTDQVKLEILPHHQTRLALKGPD

GRIP1_5, Q9Y3R0 = target: T6, GRIP1_5, Q9Y3R0
T6 sequence (Q9Y3R0 568-668, limits assumed, looked up): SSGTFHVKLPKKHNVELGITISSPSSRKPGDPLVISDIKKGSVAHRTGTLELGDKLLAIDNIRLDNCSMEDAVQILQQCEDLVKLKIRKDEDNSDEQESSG

GRIP2_5, Q9C0E4 = target: GRIP2_5, Q9C0E4
HTRA4, P83105 = target: T7, HTRA4, P83105
T7 sequence (P83105 378-476, limits assumed, looked up): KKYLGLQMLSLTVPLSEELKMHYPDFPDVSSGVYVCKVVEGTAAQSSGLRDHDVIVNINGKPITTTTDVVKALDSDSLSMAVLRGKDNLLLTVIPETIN

Inadl_2, Q8NI35 = target: Inadl_2, Q8NI35
Inadl_4, Q8NI35 = target: Inadl_4, Q8NI35
Inadl_5, Q8NI35 = target: Inadl_5, Q8NI35
Inadl_6, Q8NI35 = target: Inadl_6, Q8NI35
LDB3, O75112 = target: LDB3, O75112
LNX2_2, Q8N448 = target: T8, LNX2_2, Q8N448
T8 sequence (Q8N448 334-432, limits assumed, looked up): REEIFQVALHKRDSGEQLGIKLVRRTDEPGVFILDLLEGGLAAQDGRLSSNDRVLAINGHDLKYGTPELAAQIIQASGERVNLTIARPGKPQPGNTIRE

MAGI1_1, Q96QZ7 = target: MAGI1_1, Q96QZ7
MAGI1_2, Q96QZ7 = target: MAGI1_2, Q96QZ7
MAGI2_4, Q86UL8 = target: MAGI2_4, Q86UL8
MAGI2_6, Q86UL8 = target: MAGI2_6, Q86UL8
NHERF3_1, Q5T2W1 = target: T9, NHERF3_1, Q5T2W1
T9 sequence (Q5T2W1 4-100, limits assumed, looked up): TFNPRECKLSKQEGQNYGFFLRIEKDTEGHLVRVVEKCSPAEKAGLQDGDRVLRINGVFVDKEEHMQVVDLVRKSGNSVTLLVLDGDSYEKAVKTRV

PDZRN4_1, Q6ZMN7 = target: PDZRN4_1, Q6ZMN7
RHPN1, Q8TCX5 = target: T10, RHPN1, Q8TCX5
T10 sequence (Q8TCX5 508-602, limits assumed, looked up): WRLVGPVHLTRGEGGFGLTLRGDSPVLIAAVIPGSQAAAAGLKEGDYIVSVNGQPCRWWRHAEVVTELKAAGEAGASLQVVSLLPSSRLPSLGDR

SNTG1, Q9NSN8 = target: T11, SNTG1, Q9NSN8
T11 sequence (Q9NSN8 52-150, limits assumed, looked up): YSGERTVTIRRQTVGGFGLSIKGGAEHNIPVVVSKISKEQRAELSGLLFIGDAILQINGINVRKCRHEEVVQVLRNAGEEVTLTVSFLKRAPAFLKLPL

TJP2_1, Q9UDY2 = target: TJP2_1, Q9UDY2
[1] = plain residues with an end cap or a label only (N-terminal biotin on a linker: ahx)
[2] = plain residues with an end cap or a label only (N-terminal biotin on a linker: ado-ado)

Sequence of Inadl_6, Q8NI35 (Q8NI35 1058-1167): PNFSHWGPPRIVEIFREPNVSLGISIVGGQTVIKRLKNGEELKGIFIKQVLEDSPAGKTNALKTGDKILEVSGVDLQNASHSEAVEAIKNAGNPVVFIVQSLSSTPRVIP
Sequence of FRMPD2_3, Q68DX3 (Q68DX3 1073-1166): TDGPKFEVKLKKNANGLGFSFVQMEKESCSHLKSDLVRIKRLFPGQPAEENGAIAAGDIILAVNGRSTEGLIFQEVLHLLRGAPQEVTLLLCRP
Sequence of MAGI1_1, Q96QZ7 (Q96QZ7 1-106): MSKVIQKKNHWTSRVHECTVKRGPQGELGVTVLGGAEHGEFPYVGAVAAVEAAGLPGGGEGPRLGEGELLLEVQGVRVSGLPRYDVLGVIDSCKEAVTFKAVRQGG
Sequence of TJP2_1, Q9UDY2 (Q9UDY2 24-128): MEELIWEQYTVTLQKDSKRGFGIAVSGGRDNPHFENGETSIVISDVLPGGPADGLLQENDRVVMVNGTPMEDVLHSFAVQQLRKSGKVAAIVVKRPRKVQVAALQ
Sequence of MAGI1_2, Q96QZ7 (Q96QZ7 456-580): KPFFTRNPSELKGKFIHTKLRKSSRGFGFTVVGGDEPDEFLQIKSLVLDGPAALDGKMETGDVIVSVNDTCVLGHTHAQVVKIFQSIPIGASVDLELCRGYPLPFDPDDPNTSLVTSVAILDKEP
Sequence of MAGI2_4, Q86UL8 (Q86UL8 772-865): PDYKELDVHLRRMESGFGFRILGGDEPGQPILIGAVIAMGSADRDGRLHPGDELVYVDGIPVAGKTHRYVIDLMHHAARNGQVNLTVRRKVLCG
Sequence of FRMPD4, Q14CM0 (Q14CM0 67-160): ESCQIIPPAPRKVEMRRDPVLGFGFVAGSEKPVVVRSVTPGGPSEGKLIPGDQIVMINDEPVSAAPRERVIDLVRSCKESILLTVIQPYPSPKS
Sequence of GRIP2_5, Q9C0E4 (Q9C0E4 544-642): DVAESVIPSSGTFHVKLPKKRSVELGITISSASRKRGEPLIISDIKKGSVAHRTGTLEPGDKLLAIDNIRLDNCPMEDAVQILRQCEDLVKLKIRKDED
Sequence of Inadl_4, Q8NI35 (Q8NI35 547-651): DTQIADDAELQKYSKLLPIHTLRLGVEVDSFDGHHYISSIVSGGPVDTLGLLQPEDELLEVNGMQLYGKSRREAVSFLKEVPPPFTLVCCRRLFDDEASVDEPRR
Sequence of Inadl_5, Q8NI35 (Q8NI35 673-780): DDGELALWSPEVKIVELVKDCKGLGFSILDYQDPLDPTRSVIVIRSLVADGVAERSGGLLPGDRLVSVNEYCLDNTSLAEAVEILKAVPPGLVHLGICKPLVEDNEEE
Sequence of PDZRN4_1, Q6ZMN7 (Q6ZMN7 213-318): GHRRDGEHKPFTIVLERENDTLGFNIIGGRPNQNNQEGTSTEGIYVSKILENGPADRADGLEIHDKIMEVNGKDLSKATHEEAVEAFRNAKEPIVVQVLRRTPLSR
Sequence of LDB3, O75112 (O75112 1-94): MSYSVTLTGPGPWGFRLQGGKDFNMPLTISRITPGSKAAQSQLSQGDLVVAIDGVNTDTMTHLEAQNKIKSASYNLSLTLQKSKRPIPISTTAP
Sequence of Inadl_2, Q8NI35 (Q8NI35 238-335): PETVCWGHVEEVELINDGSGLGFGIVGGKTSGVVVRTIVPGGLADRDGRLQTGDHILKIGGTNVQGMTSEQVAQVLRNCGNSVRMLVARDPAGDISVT
Sequence of DLG4_1, P78352 (P78352 62-152): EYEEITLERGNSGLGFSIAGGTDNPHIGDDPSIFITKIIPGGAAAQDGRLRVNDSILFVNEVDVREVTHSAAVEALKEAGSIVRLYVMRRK
Sequence of MAGI2_6, Q86UL8 (Q86UL8 1141-1229): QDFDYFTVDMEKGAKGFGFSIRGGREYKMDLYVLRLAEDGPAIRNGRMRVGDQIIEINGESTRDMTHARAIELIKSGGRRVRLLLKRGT

HNAFLSVTTV [PDZRN4, Q6ZMN7]
pKd (APBA2_1, Q99767; [1]): 3.69 | pKd (ARHGEF11, O15085; [1]): 3.59 | pKd (DLG1_1, Q12959; [1]): 3.54 | pKd (DLG3_1, Q92796; [1]): 3.56 | pKd (DLG4_1, P78352; [1]): below the threshold | pKd (DVL3, Q92997; [1]): below the threshold | pKd (FRMPD2_3, Q68DX3; [1]): below the threshold | pKd (FRMPD4, Q14CM0; [1]): 3.5 | pKd (GRIP1_3, Q9Y3R0; [1]): below the threshold | pKd (GRIP1_5, Q9Y3R0; [1]): 3.55 | pKd (GRIP2_5, Q9C0E4; [1]): below the threshold | pKd (HTRA4, P83105; [1]): below the threshold | pKd (Inadl_2, Q8NI35; [1]): below the threshold | pKd (Inadl_4, Q8NI35; [1]): below the threshold | pKd (Inadl_5, Q8NI35; [1]): below the threshold | pKd (Inadl_6, Q8NI35; [1]): below the threshold | pKd (LDB3, O75112; [1]): 3.56 | pKd (LNX2_2, Q8N448; [1]): 3.87 | pKd (MAGI1_1, Q96QZ7; [1]): below the threshold | pKd (MAGI1_2, Q96QZ7; [1]): 3.61 | pKd (MAGI2_4, Q86UL8; [1]): 3.49 | pKd (MAGI2_6, Q86UL8; [1]): below the threshold | pKd (NHERF3_1, Q5T2W1; [1]): below the threshold | pKd (PDZRN4_1, Q6ZMN7; [1]): 3.5 | pKd (RHPN1, Q8TCX5; [1]): below the threshold | pKd (SNTG1, Q9NSN8; [1]): below the threshold | pKd (TJP2_1, Q9UDY2; [1]): below the threshold

NRKREIFSNF [NHERF2, Q15599]
pKd (APBA2_1, Q99767; [1]): below the threshold | pKd (ARHGEF11, O15085; [1]): below the threshold | pKd (DLG1_1, Q12959; [1]): below the threshold | pKd (DLG3_1, Q92796; [1]): below the threshold | pKd (DLG4_1, P78352; [1]): below the threshold | pKd (DVL3, Q92997; [1]): below the threshold | pKd (FRMPD2_3, Q68DX3; [1]): below the threshold | pKd (FRMPD4, Q14CM0; [1]): below the threshold | pKd (GRIP1_3, Q9Y3R0; [1]): below the threshold | pKd (GRIP1_5, Q9Y3R0; [1]): below the threshold | pKd (GRIP2_5, Q9C0E4; [1]): below the threshold | pKd (HTRA4, P83105; [1]): below the threshold | pKd (Inadl_2, Q8NI35; [1]): below the threshold | pKd (Inadl_4, Q8NI35; [1]): below the threshold | pKd (Inadl_5, Q8NI35; [1]): below the threshold | pKd (Inadl_6, Q8NI35; [1]): below the threshold | pKd (LDB3, O75112; [1]): below the threshold | pKd (LNX2_2, Q8N448; [1]): below the threshold | pKd (MAGI1_1, Q96QZ7; [1]): below the threshold | pKd (MAGI1_2, Q96QZ7; [1]): below the threshold | pKd (MAGI2_4, Q86UL8; [1]): below the threshold | pKd (MAGI2_6, Q86UL8; [1]): 3.55 | pKd (NHERF3_1, Q5T2W1; [1]): below the threshold | pKd (PDZRN4_1, Q6ZMN7; [1]): below the threshold | pKd (RHPN1, Q8TCX5; [1]): below the threshold | pKd (SNTG1, Q9NSN8; [1]): below the threshold | pKd (TJP2_1, Q9UDY2; [1]): below the threshold

RRRKRKRTYL [HPV49-L2, P36762]
pKd (APBA2_1, Q99767; [1]): below the threshold | pKd (ARHGEF11, O15085; [1]): 4.01 | pKd (DLG1_1, Q12959; [1]): 3.49 | pKd (DLG3_1, Q92796; [1]): below the threshold | pKd (DLG4_1, P78352; [1]): 3.62 | pKd (DVL3, Q92997; [1]): 3.57 | pKd (FRMPD2_3, Q68DX3; [1]): below the threshold | pKd (FRMPD4, Q14CM0; [1]): 3.53 | pKd (GRIP1_3, Q9Y3R0; [1]): below the threshold | pKd (GRIP1_5, Q9Y3R0; [1]): below the threshold | pKd (GRIP2_5, Q9C0E4; [1]): below the threshold | pKd (HTRA4, P83105; [1]): 3.66 | pKd (Inadl_2, Q8NI35; [1]): below the threshold | pKd (Inadl_4, Q8NI35; [1]): below the threshold | pKd (Inadl_5, Q8NI35; [1]): 4.05 | pKd (Inadl_6, Q8NI35; [1]): below the threshold | pKd (LDB3, O75112; [1]): below the threshold | pKd (LNX2_2, Q8N448; [1]): below the threshold | pKd (MAGI1_1, Q96QZ7; [1]): below the threshold | pKd (MAGI1_2, Q96QZ7; [1]): 5.71 | pKd (MAGI2_4, Q86UL8; [1]): below the threshold | pKd (MAGI2_6, Q86UL8; [1]): below the threshold | pKd (NHERF3_1, Q5T2W1; [1]): 4.86 | pKd (PDZRN4_1, Q6ZMN7; [1]): 3.55 | pKd (RHPN1, Q8TCX5; [1]): 3.51 | pKd (SNTG1, Q9NSN8; [1]): below the threshold | pKd (TJP2_1, Q9UDY2; [1]): 5.68

PLSPEQPTKL [TRIM50, Q86XT4]
pKd (APBA2_1, Q99767; [2]): below the threshold | pKd (ARHGEF11, O15085; [2]): below the threshold | pKd (DLG1_1, Q12959; [2]): below the threshold | pKd (DLG3_1, Q92796; [2]): below the threshold | pKd (DLG4_1, P78352; [2]): below the threshold | pKd (DVL3, Q92997; [2]): below the threshold | pKd (FRMPD2_3, Q68DX3; [2]): below the threshold | pKd (FRMPD4, Q14CM0; [2]): 3.61 | pKd (GRIP1_3, Q9Y3R0; [2]): below the threshold | pKd (GRIP1_5, Q9Y3R0; [2]): below the threshold | pKd (GRIP2_5, Q9C0E4; [2]): below the threshold | pKd (HTRA4, P83105; [2]): 3.75 | pKd (Inadl_2, Q8NI35; [2]): below the threshold | pKd (Inadl_4, Q8NI35; [2]): below the threshold | pKd (Inadl_5, Q8NI35; [2]): below the threshold | pKd (Inadl_6, Q8NI35; [2]): below the threshold | pKd (LDB3, O75112; [2]): below the threshold | pKd (LNX2_2, Q8N448; [2]): below the threshold | pKd (MAGI1_1, Q96QZ7; [2]): below the threshold | pKd (MAGI1_2, Q96QZ7; [2]): below the threshold | pKd (MAGI2_4, Q86UL8; [2]): below the threshold | pKd (MAGI2_6, Q86UL8; [2]): below the threshold | pKd (NHERF3_1, Q5T2W1; [2]): 3.53 | pKd (PDZRN4_1, Q6ZMN7; [2]): below the threshold | pKd (RHPN1, Q8TCX5; [2]): below the threshold | pKd (SNTG1, Q9NSN8; [2]): below the threshold | pKd (TJP2_1, Q9UDY2; [2]): below the threshold

— paper PMC9482650, “Quantitative fragmentomics allow affinity mapping of interactomes” (Nature Communications, 2022)
